Measurements as given in a protein production outcome set (Wang et al. 2014).

Assay: label from the status in PepcDB records
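Also: failed if final PepcDB status was selected cloned or expressed and not failed if soluble or beyond.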

Row | Sequence | protein production
1 | MLDLVSSKTTPVFSLVAFAVIHSLTASLPFKRMVMKAAGPRAEKLYLPAYSLVAVLTVLPLAYQLYKNPGRILYKIPSPWRWLMVGGQVIAGILAPMAFWNAPHRFKIRSQLSGPQASEEGSLKIKGIYRWVRDPFLLSGLVVMLLTPFMTVNLLIVYLLTTVYLFLGSLHWETRLVAQFGDEYREYQKKVHRIIPELKGSVKNPGDKASE | failed
2 | MLDPARGYDLIGDVHGCAHTLEHLLELLGYRLQAGVWRHPERIAIFLGDIIDRGPRIRESLHIVRDMVQAGQAYCIMGNHEFNALGWMTPALPESGHLFVREHTPRHARLIGETLAQFEAYPDEWNEFVNWFYELPLYIDAGRFRVVHACWDATLIDPLRGLHGTGCIDRHFVQASAVPGSFASNVFNRLLRGTDMRLPHGLTLTGGDGLTREFFRTKFWEDNPQTYGDVVFQPDALPEGVAKTPLSTSEKNALLRYGSNEPLLFVGHYWRSGIPAPIRPNLACLDYSAVLYGKLVAYRLDQETHVDPDKFVWVDVQRPEVSP | failed
3 | MLDPARSFDIIGDVHGCALTLERLLDALGYKRVAGVWRHPRRQALFLGDIVDRGPRIREALHIVHDMVEAGQAFCIMGNHEYNALGWVTPALPGSGKAYVREHTPRHARLIDETLTQFAQHPGDWHDFVNWFYQLPLFIDAGRFRLVHACWDPRLIEPLRQQYPDGRIDEHFIQASAVSGSFADTVCNRLLRGTDMRLPDGLTLTGGDGLTRAFFRTKFWEEDPKTYGDIVFQPDALPEEVASTPLSHSQKNALLRYDEDQPMLFVGHYWRSGRPAPIRANLACLDYSAVLYGKLVAYRLDDETRIDPHKFVWVDVDRPQANQLEHHHHHH | not failed
4 | MLDPYRRYRHARLIHAVRVALGLIATILLTTGLNLPHGEWASVTMLVVIGGLQHHGNIGKKAAERAIGTLVGAGVGLVLVVQQAYFGHPWLTYLGMSVVCGYFSYHAIGKGGYTALLAAITVFIVAGHGDNQVSDGLWRAVDILIGIALALAFSFAIPLYAVYSWRYNLASALRDCAQLYGRIIKGQSVTDDEHLKLLGRVNSAMLQLRSLMPSVSKEVRISMTELDAIQRNLRMCISTLEILGNTRPDASDPQAMAQMQLALKAEHRQIRVQLIGMARALQSGVTQRLEKSVEGHPENALEAPVYSALDGYRLLTRQLAATLGEMHQRLAKSARHWKI | failed
5 | MLDRLRFPHPWLSLTLFVMWQFLSDGISGGSIVLGLILAWIIPLMTQGFWPDPPTLLKAWKTPAYLLRVLWDIVVASVDVARLILSPRAPRPMFICYTLELTDPLAISILASTISLTPGTVSADVSDDNTLLLIHALDAEDEQEVIDTIRNRYEKPLLEMFQ | failed
6 | MLDSAQLIFDLQKVNTTSKRISGCLDTTAITKEITEALIHDFHCVFARIWLTEPDGASLKLVASSGLHTSTNGSFARVPMGAYKVGKIAQSCIPFLSNHLANETWVKDRDWAIANNIRGFAGYPLVGHDRVIGVLAVFSEAPFVAEFLEVLQVLCMAVAIAIDAVRQLQSETNTINTTQFLDDQIP | failed
7 | MLEATNTPSKTEEPAAPVNPALAAEAKIARIAVTVFPLLVVVAGVLGFLIPDLFKPMGVAVPYLLGVIMFCMGLTLTPPDFASVARRPWAVALGIVAHYVIMPGAGWLIAVLLQLPPELAVGLILVGCAPSGTASNVMAFLAKGDVALSVAVASVSTLIAPIVTPTLTLFLAGSFLHIDAGAMVMDIVKTVLLPVIAGLLARLFLSKLVAKVLPALPWASAVVISLIVAIVVAGSASKIVAAGAIVFLAVVLHNGFGLGLGYLAGKLGRLDDKARRALAFEVGMQNSGLAATLATAHFSPLAALPSAVFSLWHNISGAIVAAWLARRPLKD | failed
8 | MLEEYRKHVAERAAEGIAPKPLDANQMAALVELLKNPPAGEEEFLLDLLTNRVPPGVDEAAYVKAGFLAAIAKGEAKSPLLTPEKAIELLGTMQGGYNIHPLIDALDDAKLAPIAAKALSHTLLMFDNFYDVEEKAKAGNEYAKQVMQSWADAEWFLNRPALAEKLTVTVFKVTGETNTDDLSPAPDAWSRPDIPLHALAMLKNAREGIEPDQPGVVGPIKQIEALQQKGFPLAYVGDVVGTGSSRKSATNSVLWFMGDDIPHVPNKRGGGLCLGGKIAPIFFNTMEDAGALPIEVDVSNLNMGDVIDVYPYKGEVRNHETGELLATFELKTDVLIDEVRAGGRIPLIIGRGLTTKAREALGLPHSDVFRQAKDVAESDRGFSLAQKMVGRACGVKGIRPGAYCEPKMTSVGSQDTTGPMTRDELKDLACLGFSADLVMQSFCHTAAYPKPVDVNTHHTLPDFIMNRGGVSLRPGDGVIHSWLNRMLLPDTVGTGGDSHTRFPIGISFPAGSGLVAFAAATGVMPLDMPESVLVRFKGKMQPGITLRDLVHAIPLYAIKQGLLTVEKKGKKNIFSGRILEIEGLPDLKVEQAFELTDASAERSAAGCTIKLNKEPIIEYLNSNIVLLKWMIAEGYGDRRTLERRIQGMEKWLANPELLEADADAEYAAVIDIDLADIKEPILCAPNDPDDARPLSAVQGEKIDEVFIGSCMTNIGHFRAAGKLLDAHKGQLPTRLWVAPPTRMDAAQLTEEGYYSVFGKSGARIEIPGCSLCMGNQARVADGATVVSTSTRNFPNRLGTGANVFLASAELAAVAALIGKLPTPEEYQTYVAQVDKTAVDTYRYLNFNQLSQYTEKADGVIFQTAV | not failed
9 | MLEIIQKTLTDNAIIGAIFSSIAIIFLGFYIRKRNILTGAASKILTKVVLTVAIPALAFTSFMKDINQKELHEGINILIWGFVIYILLIVLTKFIFARVKGDKQDVFRVLTIFGSTTFFGVPIVKAVYGSVGAMYSSIFNIAYRVFLYSYGYIKMSGVKMDKENLKKNLKEMLLNPVIIATFLGLFIWLFQGMLPQVQIGDKSYAFLRIDQTLPWLYKPLTYLDKLCSPLAWLAIGITLAEVPFKQAVGQKEPWVYSLIKIILVPVINLGLLVVLNKTGILPVSFEGMATTVIMLATPTATVAAAYAISFDKEALLTSNCSLLSTVVAVVAMPFWIVILQIIKNIGLFA | failed
10 | MLEINKIHQMNCFDFLDQVENKSVQLAVIDPPYNLSKADWDSFDSHNEFLPFTYRWIDKVLDKLDKDGSLYIFNTPFNCAFICQYLVSKGMIFQNWITWDKRDGMGSAKRGFSTGQETILFFSKSKNHTFNYDEVRVPYESTDRIKHASEKGILKNGKRWFPNPNGRLCGEVWHFSSQRHKEKVNGKTVKLTHITPKPRDLIERIIRASSNPNDLVLDCFMGSGTTAIVAKKLGRNFIGCDMNAEYVNQANFVLNQLEIN | not failed
11 | MLEKSLAILFALLILATLINRFLVWRLPERKGDEVTLRIRTWWGIVICFSLVISGPRWMTLTFFALISFLALKEYCTLISVHFPRWLYWVIPLNYLLIGFNCFELFLLFIPLAGFLILATWRVFVGDPSGFLHTVSAIFCGWIMTVFTLSHAAWLLMLPTINIQGGALLVLFLLALTESNDIAQYLWGKSCGRRKVVPKVSPGKTLEGLVGGVITTMIASLIIGPLLTPLNTLQVLLAGLLIGISGFCGDVVMSATKRDVGVKDSGKLLPGHGGLLDRIDSLIFTAPVFFYFIRYCCY | failed
12 | MLEQIFILLIALVVLVWSADKFVFGASSLARNLGISPMIIGLTIVAMGSSAPEMMVAATASMQGNPDTAIGNAIGSNITNIALVLGITALLQPLTVSSQTIKREIPLILAVTALGYWLLFDNHFSFIEGIILISGFAIYIITLLVITLKKTRGKPSDDPLIIEAEQDVAAAVSMKLSLIWLGVGIILLPLSASFLVDSSVYIAKAYGISDLVIGLTIIAIGTSLPELAASIMSIIKKEDDLALGNIIGSNIFNILAVLPIAGLIAPGNIDALAASRDAPYMLGITLLLFILCFSRRLGAFRITRAKGALLLLSFIAYQVLLFSQLS | failed
13 | MLERIANIQKKLSKSIVERKINEVRKVAAVDVSYKEEKARAALVITTFPEGEVLKTKVIETTVSFPYIPTFFFLRETKPILIATKGETFDVLIVEGHGKAHPRGYGLASHIGVVLRKPTIGVAKRLLKNTPKDTYKKVGKVYVSVGNLITLEDATKIIRAILDESGYPKPLKLADKLSKGRIYEVKNTPSPNRSRKKRGNRGKDNNNSQGNLEHHHHHH | failed
14 | MLETLHLTPLDRWIDAWLAHQRALGRAYDNEGWILGHLRRFIVSSEAGDLDQKGFDRWCASLRHLSPTTRRGRQFVVRKLCLFRRRAEPGCFVPDSIYFARKLPYRRPVILEPAQVSRMLAAADGLAPTTNSPLLPAVMRLATIILYTAGLRRGELARLTLDDVEPQSGLLRIRQSKFHKSRLVPLSPDAAGALRTYLHLRLAPSFNADPSSALLCCGRAGRRGYTGAGLGQAINRLFVTADVRDSEGRLPRVHDIRHSFGVQALIRWYRAGADVQSCLPSLAIYMGHVSVVSTAHYLHFVPTMRELASSRFEAAFGNIVVEAKP | failed
15 | MLFAAEGGGFFSSSASGYSNGLALLLLGQKTEQKPIKVSSQWNHYHLVLEDSDTGFRLDSSKNWLSSACTSLICFGRKSERLESEGKKDEAPSVEDYNNCEVTNRFALKSSLKKRSFSDVVIGDDDVSRDGVVDHIDRRKVQWPDTCGIEIAEVREFEPRYGCFLL | failed
16 | MLFEASLVAVWAFFCGIDKYDVALNIHRPLITGPVVGLIMGDMQIGLIAGATLELAWLGLVPNAGAQPPDVTMGTIAAVAFAVMTGQSPEVAMGVGMPIAVLMQMLVIGFFAMTSFTMGKADKYAEEANTNGIDFLLLSTITMRSMLYAVIAFLTVYFGEHGAAWIDANAPKTLLEGLGIGAKMVPAIGFAMLLKIMWSKEVAGVFFIGFVMTTYLQLPIMAVAILGASAAALYYFFSGNGNKNSNQEFEDFEDGI | failed
17 | MLFELVILFVILFLFLGYPISKAWDSFQSKKENSSSILKFEPQEILSICLSYFIFGLGIMWNANDVRGGIPLHKFEKNGMMSDQYASLAHDHIAIVVLLVILGAVSYWRLTKGLTKLSPIFYIFYSTLMIVNIVYTFIYITHTGFAFYTELGGLRYIPVFCIQVGMLAFSLLFIAKLRNTLDYFIQSQNEKDYTQSNRIILLLYRISFGYQKMATVWMISLFPVLLIIQFILILFGQKPDSFIRVFMETSSFNYSKIPAPSPQIVSGDGHYLCTVSVKGHKNIVKPLRAGIRHGERITVNRQLLIANAFENVIEERVPKCHKVIRNFYDKYGYPISKHINTKWSADFVYILMKPLEWFFLFVLYTVDKNPENRIHIQYSELRK | failed
18 | MLFLDSVAMKEKPEGREEYPFSVPAMRHLERLEFKTPITFFAGNNGSGKSTLLEGLAAGMTAYAIGNHGDVKGDLYLQHAETVAKAFYFARKKYPKIRMFLRAEDVLGYIRRQNENALDDFRWEREKALKKGEDFPEETPEIFRGIVRNNSLDRRSHGEGFLDIMHRRLHGAGLYFLDEPESPLSPQKQLELAAIIRQAADSGGQLIIATHSPVLLAIPEATIYYFDEDGITERLYDELENIAFLRRFLDRPSKYLDDLEHHHHHH | not failed
19 | MLFPLILQRPMLSTPTLPRKTFAFLLGGVLLVGLVACGSSTPMAPASSASSALESAAADSLLRQVKTQIREATDEGSLDSLKQARAWAKQATGGDRAALAHYYAALADYRMSNRLPEEDEARRGRVIEDAIGHLKRATEINGTMADAWALLSGYYGQMMGMNPMQGMSLGPKANEAMKRAKEHGPNNPRVWIIDGTSDFYTPGMFGGDKEKALTKFEKAARLAEQGSPDDPLMPGWGHAEAHAWVGVAHMEAERYDPARTAFEAALDLNPDYGWVRSVLLPRLEQQAG | failed
20 | MLFQDDKGVGVAIYRRRFTVLGCASSPGVPRINGDWGACDPQNPRNRRTRAAFMVEQIGPDGGKTTVVIDTGPDFREQMIAAKVQAVDAVLYTHAHADHLHGIDDLRIYFALQKSRIPIWADPVTMARIRDGFAYCLETPAGSNYPPIVRPQLIADINDPVIIDGAGGPIPFKVHMQQHGDVHSLGFRIGDVAYCTDVSDFPAESLPKLTGLDVLVIDALQYRYHPSHLSLEQALGWIEALAPKRAILTHMHIPLDYDTVMRETPDHVEPAYDQMRFEVEIEAP | failed
21 | MLGGTAPKIAKAYQKTLTTNLNDVKNRLKDVTFKPKVLHFVNATNLNQVDGTGTIVNEWIKAAGGQNALKQKGNMISVTTETLAKSDPDVIIVGSATTAEARAALKKNAVLSKLTAVKKNRVYGNPQGTFPWDRYSAEEALQVLWAAKKLHPDQFQLEHHHHHH | not failed
